Assays:
Test in all cases: cell-based or functional assay
[1] = biological target: T1, human MET on cells (human, UniProt P08581 25-1390)
[2] = biological target: T1, human MET on cells; remark: listed apart in the source
[3] = biological target: T1, human MET on cells; remark: listed apart in the source
[4] = biological target: T2, human MET (exon14 skip mutation) on NCI-H596 cells (human, UniProt P08581 25-1390)
[5] = biological target: T1, human MET on cells; remark: listed apart in the source
[6] = biological target: T2, human MET (exon14 skip mutation) on …; remark: listed apart in the source
[7] = biological target: T1, human MET on cells; remark: listed apart in the source
[8] = biological target: T1, human MET on cells; remark: listed apart in the source

T1 sequence (P08581 25-1390 limits assumed, form in doubt): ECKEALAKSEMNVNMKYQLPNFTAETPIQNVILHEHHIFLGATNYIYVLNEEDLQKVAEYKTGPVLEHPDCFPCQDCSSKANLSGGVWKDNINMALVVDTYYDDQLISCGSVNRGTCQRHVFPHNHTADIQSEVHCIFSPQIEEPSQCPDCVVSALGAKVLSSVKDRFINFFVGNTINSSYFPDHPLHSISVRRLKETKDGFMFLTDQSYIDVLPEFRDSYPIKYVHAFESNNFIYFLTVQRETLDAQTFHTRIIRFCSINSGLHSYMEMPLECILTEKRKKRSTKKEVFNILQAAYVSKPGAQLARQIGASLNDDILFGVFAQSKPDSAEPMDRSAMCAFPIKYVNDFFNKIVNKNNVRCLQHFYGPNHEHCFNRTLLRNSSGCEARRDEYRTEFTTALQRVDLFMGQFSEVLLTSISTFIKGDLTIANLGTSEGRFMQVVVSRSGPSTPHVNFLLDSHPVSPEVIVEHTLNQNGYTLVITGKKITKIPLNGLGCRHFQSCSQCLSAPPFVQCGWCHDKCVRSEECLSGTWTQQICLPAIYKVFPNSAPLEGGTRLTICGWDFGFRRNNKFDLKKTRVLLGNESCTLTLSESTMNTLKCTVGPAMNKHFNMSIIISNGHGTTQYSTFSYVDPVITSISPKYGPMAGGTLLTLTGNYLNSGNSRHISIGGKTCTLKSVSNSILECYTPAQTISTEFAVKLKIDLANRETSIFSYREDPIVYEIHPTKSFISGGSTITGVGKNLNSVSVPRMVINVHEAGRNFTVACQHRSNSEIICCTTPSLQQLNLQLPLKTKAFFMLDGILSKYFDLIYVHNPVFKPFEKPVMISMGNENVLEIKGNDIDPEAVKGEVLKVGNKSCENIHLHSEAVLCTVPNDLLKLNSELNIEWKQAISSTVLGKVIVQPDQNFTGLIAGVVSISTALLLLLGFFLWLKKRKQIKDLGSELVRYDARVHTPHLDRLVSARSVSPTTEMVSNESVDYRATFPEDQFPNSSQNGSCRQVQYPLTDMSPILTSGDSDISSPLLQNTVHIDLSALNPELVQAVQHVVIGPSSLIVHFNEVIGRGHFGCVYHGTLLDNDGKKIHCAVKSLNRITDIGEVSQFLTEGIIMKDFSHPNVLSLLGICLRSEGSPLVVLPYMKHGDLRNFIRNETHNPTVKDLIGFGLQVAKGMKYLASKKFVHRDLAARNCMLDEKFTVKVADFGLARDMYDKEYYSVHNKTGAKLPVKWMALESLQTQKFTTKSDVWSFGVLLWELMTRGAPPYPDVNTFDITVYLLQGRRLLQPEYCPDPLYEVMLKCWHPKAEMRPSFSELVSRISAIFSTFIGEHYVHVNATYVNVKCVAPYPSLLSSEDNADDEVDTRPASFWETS
T2 sequence (P08581 25-1390, change not shown): as the sequence (P08581 25-1390 limits assumed, form in doubt) above

B1: H4H14638D (bispecific antibody, human IgG4, V domains shown)
VH 1: QVQLVESGGGVVQPGRSLRLSCAASGFTFSNFGMHWVRQAPGKGLEWVAGIWFDGSNKNYIDSVKGRFTISRDNSKNTLYLQMNSLRAEDTAVYYCAREGYDSGTDYIPYDIFDIWGQGTMVTVSS
VH 2: EVQLVESGGGLVQPGGSLRLSCAASGFIVTTNYMTWLRQAPGKGLEWVSLIYSSGHTYYADSVKGRFTISRHNSKNTLYLQMDSLRAEDTAVYYCASAFAADVFDIWGQGTMVTVSS
VL: not shown
For B1, the “% Inhibition, HEK293/SRE-Luc Blocking Activity (HGF, 1 h mAb pre-bind)” value [1] was 79%, the “EC50, Ligand (HGF)-Independent HEK293/SRE-Luc Activation” value [1] was 5.9 nM and the “Fold Response, Ligand (HGF)-Independent HEK293/SRE-Luc Activation” value [1] was 2.6 fold. The “IC50, HEK293/SRE-Luc Blocking Activity (HGF, 1 h mAb pre-bind)” value [1] was 1.1 nM and the “Relative MET Level, SNU5 cells, 18 hrs” value [2] was 0.35 relative to control (hFc).

B2: H4H14641D (bispecific antibody, human IgG4, V domains shown)
VH 1: QVQLVESGGGVVQPGRSLRLSCSASGFSFSHFGMHWVRQVPGGGLEWVTSIWFDGSNRYYADSLKGRFTISRDNSKNTLYLEMNSLRAEDTAVYYCVREGILGTTNPYDVFDVWGQGTMVTVSS
VH 2: EVQLVESGGGLVQPGGSLRLSCAASGFIVTTNYMTWLRQAPGKGLEWVSLIYSSGHTYYADSVKGRFTISRHNSKNTLYLQMDSLRAEDTAVYYCASAFAADVFDIWGQGTMVTVSS
VL: not shown
With B2 the “% Inhibition, HEK293/SRE-Luc Blocking Activity (HGF, 1 h mAb pre-bind)” value [1] was 75%, the “EC50, Ligand (HGF)-Independent HEK293/SRE-Luc Activation” value [1] was 84 nM and the “Fold Response, Ligand (HGF)-Independent HEK293/SRE-Luc Activation” value [1] was 4.4 fold. The “IC50, HEK293/SRE-Luc Blocking Activity (HGF, 1 h mAb pre-bind)” value [1] was 2.7 nM and the “Relative MET Level, SNU5 cells, 18 hrs” value [2] was 0.31 relative to control (hFc).

B3: H4H14636D (bispecific antibody, human IgG4, V domains shown)
VH 1: EVQLVESGGGLVQPGGSLRLSCAASGFIFSNYEMNWVRQAPGKGLEWISYITSSGNMKYYADSVKGRFTISRDNDKNSLYLQMSSLRVEDTAVYYCVRGGRFLEWLTYYVMVVWGQGTTVTVSS
VH 2: EVQLVESGGGLVQPGGSLRLSCAASGFIVTTNYMTWLRQAPGKGLEWVSLIYSSGHTYYADSVKGRFTISRHNSKNTLYLQMDSLRAEDTAVYYCASAFAADVFDIWGQGTMVTVSS
VL: not shown
For B3, the “% Inhibition, HEK293/SRE-Luc Blocking Activity (HGF, 1 h mAb pre-bind)” value [1] was 74%, the “EC50, Ligand (HGF)-Independent HEK293/SRE-Luc Activation” value [1] was 0.28 nM and the “Fold Response, Ligand (HGF)-Independent HEK293/SRE-Luc Activation” value [1] was 2.8 fold. The “Relative MET Level, SNU5 cells, 18 hrs” value [2] was 0.5 relative to control (hFc).

B4: H4H14637D (bispecific antibody, human IgG4, V domains shown)
VH 1: QVQLVESGGGVVQPGTSLRLSCVASGFTFRNFGMHWVRQAPGKGLEWVANIWFDGSNENYVESIQGRFTISRDNSKNTLNLQMNSLRAEDSAVYYCVREGILGTTNPYDAFDVWGQGTMVTVSS
VH 2: EVQLVESGGGLVQPGGSLRLSCAASGFIVTTNYMTWLRQAPGKGLEWVSLIYSSGHTYYADSVKGRFTISRHNSKNTLYLQMDSLRAEDTAVYYCASAFAADVFDIWGQGTMVTVSS
VL: not shown
In the case of B4, the “% Inhibition, HEK293/SRE-Luc Blocking Activity (HGF, 1 h mAb pre-bind)” value [1] is reported as 73%, the “EC50, Ligand (HGF)-Independent HEK293/SRE-Luc Activation” value [1] is reported as 4.1 nM and the “Fold Response, Ligand (HGF)-Independent HEK293/SRE-Luc Activation” value [1] is reported as 2.1 fold. For the same binder, the “Relative MET Level, SNU5 cells, 18 hrs” value [2] was 0.49 relative to control (hFc).

B5: H4H14639D (bispecific antibody, human IgG4, V domains shown)
VH 1: EVQLVESGGGLVQPGTSLRLSCAASGFTFDDYAMHWVRQAPGKGLEWVSGITWNSYNIDYADSVKGRFTISRDNAKNSLYLQMNSLRAEDTALYYCAKDDDYSNYVYFDYWGQGTLVTVSS
VH 2: EVQLVESGGGLVQPGGSLRLSCAASGFIVTTNYMTWLRQAPGKGLEWVSLIYSSGHTYYADSVKGRFTISRHNSKNTLYLQMDSLRAEDTAVYYCASAFAADVFDIWGQGTMVTVSS
VL: not shown
notes: MET x MET bispecific, human IgG4; also called No. 122; MET×MET bispecific antibody
With B5 the “Relative Cell Growth (n = 3), EBC-1 cells, 0.1 µg/mL H4H14639D” value [3] was 0.397 relative to control, the “Relative Cell Growth (n = 3), EBC-1 cells, 1 µg/mL H4H14639D” value [3] was 0.462 relative to control and the “Relative MET Level, NCI-H596 cells, 18 h” value [4] was 0.24 relative to control (hFc). For the same binder, the “Relative Cell Growth (n = 3), Hs746T cells, 5 µg/ml, 5 days” value [5] was 0.647 normalized to control, the “Relative Cell Growth (n = 3), NCI-H596 cells in soft agar, 5 µg/ml, two weeks” value [6] was 1.07 normalized to control and the “Relative Cell Growth (n = 3), SNU5 cells, 5 µg/ml, 5 days” value [7] was 0.271 normalized to control. The “IC50, 6-day in vitro cytotoxicity, A549” value [8] was 0.17 nM, the “IC50, 6-day in vitro cytotoxicity, EBC-1” value [8] was 0.37 nM and the “IC50, 6-day in vitro cytotoxicity, Hs746t” value [8] was 0.44 nM. The “Max % Kill, 6-day in vitro cytotoxicity, A549” value [8] was 29%, the “Max % Kill, 6-day in vitro cytotoxicity, EBC-1” value [8] was 66% and the “Max % Kill, 6-day in vitro cytotoxicity, Hs746t” value [8] was 35%.

Reference: patent US20220040319A1 (Regeneron, published 2022)
